Patent US20180142226

Assays:
[1] = biological target: T1, 33mer peptide of α-gliadin
T1 chain: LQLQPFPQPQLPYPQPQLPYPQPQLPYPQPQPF

B08-E2E7 = biological target: T2, B08-E2E7
T2 chain: PQQPIPQQPQPYPQQ

W02-E07 = biological target: T3, W02-E07
T3 chain: LQPFPQPQLPYPQPQ

W03-E07 = biological target: T4, W03-E07
T4 chain: QPFPQPQQPFPWQP

[2] = biological target: T5, 26mer peptide of γ-gliadin
T5 chain: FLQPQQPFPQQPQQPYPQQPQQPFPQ

R11-E4E7 = biological target: T6, R11-E4E7
T6 chain: QPFPQQPEQIIPQQP

B1: Kuma030 (protein)
chain: AAPTAYTPLDVAQAYQFPEGLDGQGQCIAIIELGGGYDEASLAQYFASLGVPAPQVVSVSVDGASNQPTGDPEGPDGEVTLDIEVAGALAPGAKFAVYFAPDTTAGFLDAITTAIHDPTLKPSVVSISWSGPEDSWTSAAIAAMNRAFLDAAALGVTVLAAAGDQGSTSGEQDGLYHVHFPAASPYVLACGGTRLVASGGRIAQETVWNQGPDGGATGGGVSRIFPLPAWQEHANVPPSANPGASSGRGVPDLAGNADPQTGYEVVIDGEATVTGGTSAVAPLFAALVARINQKLGKAVGYLNPTLYQLPADVFHDITEGNNDIANRAQIYQAGPGWDPCTGLGSPIGVRLLQALLPSASQPQPGSTENLYFQSGALEHHHHHH
**Q.** With B1 as the protein, how does the “Activity Improvement over Background (Kuma021)” value (peptides containing PQQ) read?
**A.** 1.2-2x (PQQ)

**Q.** What about the “activity relative to Kuma010” value (peptides containing PQQ) of the same protein?
**A.** 44-fold more active against peptides containing PQQ

**Q.** What about the “activity relative to Kuma040” value (peptides containing PQQ) of the same protein?
**A.** Kuma030 is 2-fold more active on PQQ, and 2-fold less active on PQL, than Kuma040

**Q.** And the Kcat (DQ2.5-glia-α1a)?
**A.** 17.4 s⁻¹

**Q.** And the Km (DQ2.5-glia-α1a)?
**A.** 1.9 mM

**Q.** And the Vmax (DQ2.5-glia-α1a)?
**A.** 1.74e-06 M/s

**Q.** And the kcat/Km (DQ2.5-glia-α1a)?
**A.** 9030 M⁻¹ s⁻¹

**Q.** And the “appearance of peptide breakdown products over time” value [1]?
**A.** In both cases, Kuma030 was the dominant enzyme tested

**Q.** And the “cleavage products by mass spectroscopy” value [1]?
**A.** Kuma030 cleaved each peptide after the PQ dipeptide motif

**Q.** What about the Kcat (DQ2.5-glia-ω1) of the same protein?
**A.** 27.3 s⁻¹

**Q.** What about the Km (DQ2.5-glia-ω1) of the same protein?
**A.** 8.4 mM

**Q.** And the Vmax (DQ2.5-glia-ω1)?
**A.** 2.73e-06 M/s

**Q.** What about the kcat/Km (DQ2.5-glia-ω1) of the same protein?
**A.** 3270 M⁻¹ s⁻¹

**Q.** And the “cleavage products by mass spectroscopy” value (B08-E2E7)?
**A.** Kuma030 cleaved each peptide after the PQ dipeptide motif

**Q.** What about the “cleavage products by mass spectroscopy” value (W02-E07) of the same protein?
**A.** Kuma030 cleaved each peptide after the PQ dipeptide motif

**Q.** What about the “cleavage products by mass spectroscopy” value (W03-E07) of the same protein?
**A.** Kuma030 cleaved each peptide after the PQ dipeptide motif

**Q.** And the “appearance of peptide breakdown products over time” value [2]?
**A.** In both cases, Kuma030 was the dominant enzyme tested

**Q.** And the “cleavage products by mass spectroscopy” value (R11-E4E7)?
**A.** Kuma030 cleaved each peptide after the PQ dipeptide motif

**Q.** And the “Activity Improvement over Background (Kuma021)” value (peptides containing PQL)?
**A.** 1.2-2x (PQL)

**Q.** And the “activity relative to Kuma010” value (peptides containing PQL)?
**A.** 11-fold more active against peptides containing PQL

**Q.** And the “activity relative to Kuma040” value (peptides containing PQL)?
**A.** Kuma030 is 2-fold more active on PQQ, and 2-fold less active on PQL, than Kuma040
